According to article PMC4823717:
Changes are numbered by the printed parent chain. Names may count otherwise.

T1: Ffh (the protein subunit of signal recognition particle, SRP), wild type, P0AGD7
T1 chain: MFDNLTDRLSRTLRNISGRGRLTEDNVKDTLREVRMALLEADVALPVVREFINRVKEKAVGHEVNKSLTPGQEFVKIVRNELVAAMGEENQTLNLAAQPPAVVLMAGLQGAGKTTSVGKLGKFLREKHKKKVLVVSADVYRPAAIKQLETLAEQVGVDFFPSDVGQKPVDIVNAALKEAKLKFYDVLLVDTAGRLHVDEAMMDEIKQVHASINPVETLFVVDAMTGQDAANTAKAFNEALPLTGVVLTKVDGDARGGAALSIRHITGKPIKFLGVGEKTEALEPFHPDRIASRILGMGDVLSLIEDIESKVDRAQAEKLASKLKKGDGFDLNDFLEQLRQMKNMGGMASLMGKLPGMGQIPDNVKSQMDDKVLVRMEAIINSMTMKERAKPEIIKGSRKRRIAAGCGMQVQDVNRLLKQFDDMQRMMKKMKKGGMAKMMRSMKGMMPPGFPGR

B1: His6-σ32 T52pBPA, P0AGB3 K51E (protein)
chain: MTDKMQSLALAPVGNLDSYIRAANAWPMLSADEERALAEKLHYHGDLEAAE
B2: His6-σ32 T52pBPA, P0AGB3 A50D (protein)
chain: B1 chain with A50D, E51K

Molecular target: T1, Ffh (the protein subunit of signal …)
Experiment: in vivo photo-cross-linking ([35S]Met pulse-labeling, immunoprecipitation, SDS-PAGE, phosphorimaging)
Settings: chain shown with the change; 30 °C, M9-based medium with 1 mM pBPA, 1 mM IPTG for 6 min, [35S]Met for 1 min, UV irradiation; parent: 100; read off a plot

Going from MTDKMQSLALAPVGNLDSYIRAANAWPMLSADEERALAEKLHYHGDLEAD [His6-σ32 K51pBPA, P0AGB3 A50D] to B1, the percent of parent (parent (no dysregulation mutation) = 100) rises from 7.6 to 95.

B2 gave a percent of parent (parent (no dysregulation mutation) = 100) of 36.

molecular target: Ffh (the protein subunit of signal recognition particle, SRP), wild type (UniProt P0AGD7); experiment: as above; settings: 30 °C, M9-based medium with 1 mM pBPA, 1 mM IPTG for 6 min, [35S]Met for 1 min, UV irradiation; parent: 100; read off a plot

Compared with “His6-σ32 T52pBPA (from UniProt P0AGB3) R91P”, “His6-σ32 T52pBPA (from UniProt P0AGB3) I54N” is lower in percent of parent (parent (no dysregulation mutation) = 100): 76 for the first, 43 for the second.

Compared with “His6-σ32 K51pBPA (from UniProt P0AGB3) R91P”, “His6-σ32 K51pBPA (from UniProt P0AGB3) I54N” is lower in percent of parent (parent (no dysregulation mutation) = 100): 78 for the first, 53 for the second.
